One protein from paper PMC3469515 (Molecular Biology of the Cell, 2012) can be followed below.

The series concerns the molecule itself. In words: AUC.

B1: Mid1p construct M1-14 (residues 1–578) (domain or fragment, S. pombe, UniProt P78953 1-578, looked up)
chain: MKEQEFSYREAKDVSLDSKGLENSFLSSPNREKTPLFFEGNSNETSGYDQTKNFTHGDGDMSLGNLSELNVATDLLESLDLRSMYMHGYGHLDSSFSSQHSPDNRKRMSSTSVFKRINSEEEGRIPSLTYSAGTMNSTSSSTASLKGADIVADYETFNPDQNLAELSFDRSKSSRKRAVEVAEFSRAKTMSPLEYTVQHPYQSHNELSTNPARARAGSVPNLARIPSDVKPVPPAHLSASSTVGPRILPSLPKDTTEDNPALERVETTASLDMDYKPLEPLAPIQEAPVEDTSEPFSSVPEATLDDSDISTESLRKKVLAKMEAKRISSGSSYASTLRKVYDFSELSLPTNGKDYDELYLQSSRNSEPEISTIINDSLQQENMDEDISATSIPKSQAAYGHGSVTYHEVPRYNLTSASVGYSISSQRGRIKSSSTIDNLSAILSSEDLRHPSMQPVPGTKRTYSNYCENEPNKSSQSLVSSESHNVEGWNYSETGTVGFYDPSAEISASIDELRQSTPVARDSELLSRAHSFDLNRLDLPSQDKSTSYEVPNGTENQSPRPVTSLGFVNETFFEEKPK
A word on the stoichiometry N: it is a count of units in the complex or per binding partner. B1: the “stoichiometry N” value was > 8.
